{"source": "patent US8093030B2", "about": "“Thermostable viral polymerases and methods of use” (Lucigen Corporation, priority 2005, dated 2012)", "key": {"[1]": {"test_system": "ROX-labeled primer annealed to single-stranded M13mp18 DNA", "assay": "Fluorescent (ROX) primer extension in presence of ddNTPs", "format": "biochemical", "method": "In separate reactions, ddGTP, ddATP, ddTTP, and ddCTP were added to the above mix in concentrations of 50, 500 and 5000 μM each. Five units of polymerase 3173 mutant D49A were added and the reactions were incubated for 30 minutes at 70° C. Extension of the primer was detected by the ABI 310 Genetic Analyzer in Gene Scan mode."}, "activated ct DNA": {"test_system": "activated ct DNA", "assay": "Inhibition of radioactive nucleotide incorporation by chain terminating analogs", "format": "biochemical", "conditions": "control, 40 μM each dNTP, 70° C. 30 min", "method": "Based on alignment with family A DNA polymerases, amino acid 418 of the polymerase 3173 mutant D49A was mutated from phenylalanine to tyrosine. The mutant protein was expressed and the cells lysed and heat-treated at 70° C. for 10 minutes to inactivate host proteins. The polymerase 3173 mutant D49A/F418Y was tested for inhibition of radioactive nucleotide incorporation using chain terminating nucleotide analogs in the same mix as unlabeled deoxynucleotides. […] In separate reactions both the D49A/F418Y mutant and purified polymerase 3173 mutant D49A were tested for inhibition by 4 mM each of ddNTPs and 4 mM each acycloNTPs. A control with no chain terminators was included. 50 μl reactions were incubated at 70° C. for 30 min. 15 μl of each reaction was spotted on DE81 paper, washed and counted, and units of activity were determined as described in Example 6. The degree of inhibition due to incorporation of dideoxy- and acyclo-nucleotides is tabulated below."}}, "data": [{"molecule": "polymerase 3173 mutant D49A/F418Y: double mutant of polymerase 3173 with both a D49A and a F418Y mutation, SEQ ID NO:27 (protein) MGEDGLSLPKMMNTPKPILKPQPKALVEPVLCDSIDEIPAKYNEPVYFALETDEDRPVLASIYQPHFERKVYCLNLLKEKVARFKDWLLKFSEIRGWGLDFDLRVLGYTYEQLRNKKIVDVQLAIKVQHYERFKQGGTKGEGFRLDDVARDLLGIEYPMNKTKIRETFKNNMFHSFSNEQLLYASLDAYIPHLLYEQLTSSTLNSLVYQLDQQAQKVVIETSQHGMPVKLKALEEEIHRLTQLRSEMQKQIPFNYNSPKQTAKFFGVNSSSKDVLMDLALQGNEMAKKVLEARQIEKSLAFAKDLYDIAKRSGGRIYGNFFTTTAPSGRMSCSDINLQQIPRRLRSFIGFDTEDKKLITADFPQIELRLAGVIWNEPKFIEAFRQGIDLHKLTASILFDKNIEEVSKEERQIGKSANYGLIYGIAPKGFAEYCIANGINMTEEQAYEISQKVEEVLHKDCRQHQVAYERFKYNEYVDNETWLNRTYRAWKPQDLLNYQIQGSGAELFKKAIVLLKETKPDLKIVNLVHDEIVVEADSKEAQDLAKLIKEKMEEAWDWCLEKAEEFGNRVAKIKLEVEEPHVGNTWEKP", "values": [{"measurement": "primer extension at 0.2× ratio of ddGTP:dGTP", "setting": "[1]; 0.2× ddGTP:dGTP", "result": "nearly complete inhibition of primer extension"}, {"measurement": "discrimination against chain terminating nucleotides", "setting": "[1]; conclusion drawn from the extension/incorporation data", "result": "nearly zero"}, {"measurement": "Activity, no terminators", "setting": "activated ct DNA", "result": 100.0, "unit": "%"}]}]}
